B1: QP14441441 (antibody, V domains shown)
VH: QVQLVQSGAEVKKPGASVKVSCKASGYAFSSYWMNWVRQAPGQGLEWIGQIYPGNGDTTYNGKFKGRVTMTADKSTSTVYMELSSLRSEDTAVYYCARFVKGNAMDYWGQGTLVTVSS
VL: DIVMTQSPDSLAVSLGERATISCKSSQSLLNSGNQKNYLTWYQQKPGQPPKLLIYWASTRESGVPDRFSGSGSGIDFTLTISSVQAEDVAVYYCQNAYSYPFTFGQGTKLEIKR
B2: QP14451442 (antibody, V domains shown)
VH: B1 VH with Y95F
VL: B1 VL with L52M
B3: QP14451440 (antibody, V domains shown)
VH: B1 VH with Y95F
VL: B1 VL with I75T, V84L
B4: QP14641461 (antibody, V domains shown)
VH: EVQLVQSGAEVKKPGASVKVSCKASGYTFTSYIMHWVRQAPGQGLEWIGYINPYNDGTKYNEKFKGRVTLTRDKSTSTVYMELSSLRSEDTAVYYCARLGFTTRNAMDYWGQGTLVTVSS
VL: B1 VL with S22N, T40A, W56G, S69T, I75T, V84L, A97D, Y98H
B5: QP14651460 (antibody, V domains shown)
VH: B4 VH with R72S
VL: B1 VL with S22N, T40A, W56G, I75T, V84L, A97D, Y98H
B6: QP14381435 (antibody, V domains shown)
VH: EVQLVESGGGLVKPGGSLRLSCAASGFTFSNYAMSWVRQAPGKRLEWVASIISGGRTYYLDSEKGRFTISRDNAKNSLYLQMNSLRAEDTAVYYCTRIYYGNSFDYWGQGTLVTVSS
VL: DIVMTQSPDSLAVSLGERATISCKSSQSLLNSGNQKNYLTWYQQKPGQPPKLLIYWASTRESGVPDRFTGSGSGTDFTLTISSLQAEDVAVYYCQNDYSYPFTFGQGTKLEIK
B7: QP14361434 (antibody, V domains shown)
VH: B6 VH with R44G, A49S
VL: B6 VL with T69S
B8: QP14371434 (antibody, V domains shown)
VH: B6 VH with R44G
VL: B6 VL with T69S
B9: QP14361433 (antibody, V domains shown)
VH: B6 VH with R44G, A49S
VL: B6 VL with S22N, T69S
B10: QP14381434 (antibody, V domains shown)
VH: B6 VH
VL: B6 VL with T69S
B11: QP14631460 (antibody, V domains shown)
VH: B4 VH with E1Q, I48M, L70M, K74T
VL: B6 VL with S22N, T40A, W56G, T69S, Y98H
B12: QP14361435 (antibody, V domains shown)
VH: B6 VH with R44G, A49S
VL: B1 VL with S69T, I75T, V84L, A97D
B13: QP14371435 (antibody, V domains shown)
VH: B6 VH with R44G
VL: B1 VL with S69T, I75T, V84L, A97D
B14: QP14371433 (antibody, V domains shown)
VH: B6 VH with R44G
VL: B1 VL with S22N, I75T, V84L, A97D
B15: QP207208 (antibody, V domains shown)
VH: EVQLQQSGPELVKPGASVKMSCKASGYTFTSYIMHWVKQKPGQGLEWIGYINPYNDGTKYNEKFKGKATLTSDKSSSTVYMELSSLTSEDSAVYCCARLGFTTRNAMDYWGQGTSVTVSS
VL: DIVMTQSPSSLSVSAGEKVTMNCKSSQSLLNSGNQKNYLAWYQQKPGQPPKLLIYGASTRESGVPDRFTGSGSGTDFTLTISSVQAEDLAVYYCQNDHSYPFTFGSGTKLEIK
B16: QP190191 (antibody, V domains shown)
VH: EVKLVESGGGLVKPGGSLKLSCAASGFTFSNYAMSWVRQTPEKRLEWVASIISGGRTYYLDSEKGRFTISRDNARNNLYLQMSSLRSEDTAMYYCTRIYYGNSFDYWGQGTTLTVSS
VL: B15 VL with L11Q, S12T, S14T, N22S, A40T, G56W, S83N, V84M, H98Y

Where a chain is given by its changes, count along the chain named.

In one experiment the target is T1, Claudin 18.2 (CLDN18.2), expressed on CHOS-CLDN 18.2 / HEK293-CLDN 18.2 / HCC827-CLDN 18.2 cells (human, UniProt P56856 1-261). The experiment can be described thus: ELISA. On the technique in general: An ELISA detects its analyte on a solid surface through an enzyme-linked reagent.
Turning to B1, it took 0.106 µg/mL to reach a half-maximal effect (EC50). In turn, B2 returned a 50% effective concentration (EC50) of 0.0977 µg/mL. The same measure, in the same setting: then B3, with 0.0995 µg/mL.

A further experiment concerns the target T1, Claudin 18.2 (CLDN18.2), expressed on …. Kind of experiment: ELISA. This is another data set of the same source.
As to B4, the response was half-maximal at 0.0783 µg/mL (EC50). The same measure, in the same setting: then B5, with 0.0904 µg/mL.

The target is the same in a further experiment. The experiment can be described thus: cell ELISA.
Consider B6, for which a half-maximal effect (EC50) was put at 0.196 µg/mL. On the same count and under the same terms, then B7, with 0.17 µg/mL; and B8, with 0.284 µg/mL; and B9, with 0.112 µg/mL. On the same count and under the same terms, to B10 belongs 0.145 µg/mL; to B11, 0.135 µg/mL; to B12, 0.109 µg/mL. Take B13: the EC50 came to 0.134 µg/mL. The same measure, in the same setting: then B14, with 0.108 µg/mL; and B15, with 0.119 µg/mL; and B16, with 0.178 µg/mL.

The target is the same in a further experiment. The experiment can be described thus: cell ELISA. The source holds these as a separate data set.
The molecule B15 gave an EC50 of 0.179 µg/mL.

As a reminder, the EC50 is the concentration needed to bring the measured effect to its halfway point.

The values are drawn from patent US20230183352A1 (published 2023).
